# B1: bovine growth hormone (protein)
# chain: AFPAMSLSGLFANAVLRAQHLHQLAADTFKEFERTYIPEGQRYSIQNTQVAFCFSETIPAPTGKNEAQQKSDLELLRISLLLIQSWLGPLQFLSRVFTNSLVFGTSDRVYEKLKDLEEGILALMRELEDGTPRAGQILKQTYDKFDTNMRSDDALLKNYGLLSCFRKDLHKTETYLRVMKCRRFGEASCAF
# Test system: IGF-1
# Test: Plasma IGF-1 level in hypophysectomised female Wistar rats (radioimmunoassay)
# Assay type: in vivo
# Settings: dose of 100 μg/rat
# Protocol: In vivo experiments performed in the context of the present invention were carried out on 19 batches of hypophysectomised female rats of the Wistar strain, each batch comprising 5 rats. These animals were hypophysectomized when 4 weeks old and then kept under observation for one week. During an additional week of observation, the animals were weighed and those having gained more than 5 grams […] were discarded. In fact, it was assumed that the hypophysectomy of these animals was incomplete. They are thus not suitable for use in the framework of the present experiments.
# Each animal selected receives a T4 thyroid hormone and cortisone replacement treatment. These hormones are administered subcutaneously each day at 50 μg/100 g body weight in the case of cortisone and 1 μg/100 g body weight in the case of T4. Usually a slight weight gain is observed following the injection of these hormones. This hormone supplementation treatment is administered for one week during which the animals continue to be weighed daily. These animals are from then on suitable for use in a comparative evaluation of the somatogenic activity of bGH incubated with or without different peptide constructions having the sequence 104-113 or the sequence 35-53 in the case of the GH peptide described in EP 284406. […]
molecule,measurement,setting,value
B1,IGF level relative to baseline levels in control hypophysectomized animals,,eight times higher than the baseline levels
same,mean IGF levels,hypophysectomized rats,60 ng/mL
